Measurements reported in patent publication US8663616B2, “Enzymatic peracid generation for use in oral care products” (E I du Pont de Nemours and Company, priority 2010, dated 2014).

B1: EZ-5: C277S-link1-(GK)5-H6, SEQ ID NO: 428 (protein)
chain: MAFFDLPLEELKKYRPERYEEKDFDEFWEETLAESEKFPLDPVFERMESHLKTVEAYDVTFSGYRGQRIKGWLLVPKLEEEKLPCVVQYIGYNGGRGFPHDWLFWPSMGYICFVMDTRGQGSGWLKGDTPDYPEGPVDPQYPGFMTRGILDPRTYYYRRVFTDAVRAVEAAASFPQVDQERIVIAGGSQGGGIALAVSALSKKAKALLCDVPFLCHFRRAVQLVDTHPYAEITNFLKTHRDKEEIVFRTLSYFDGVNFAARAKIPALFSVGLMDNISPPSTVFAAYNYYAGPKEIRIYPYNNHEGGGSFQAVEQVKFLKKLFEKGGPGSGGAGSPGSAGGPGSGKGKGKGKGKHHHHHH
B2: EZ-2: C277S-link1-HC263-H6 fusion protein, SEQ ID NO: 425 (protein)
chain: MAFFDLPLEELKKYRPERYEEKDFDEFWEETLAESEKFPLDPVFERMESHLKTVEAYDVTFSGYRGQRIKGWLLVPKLEEEKLPCVVQYIGYNGGRGFPHDWLFWPSMGYICFVMDTRGQGSGWLKGDTPDYPEGPVDPQYPGFMTRGILDPRTYYYRRVFTDAVRAVEAAASFPQVDQERIVIAGGSQGGGIALAVSALSKKAKALLCDVPFLCHFRRAVQLVDTHPYAEITNFLKTHRDKEEIVFRTLSYFDGVNFAARAKIPALFSVGLMDNISPPSTVFAAYNYYAGPKEIRIYPYNNHEGGGSFQAVEQVKFLKKLFEKGGPGSGGAGSPGSAGGPGSPSAQSQLPDKHSGLHERAPQRYGPEPEPEPEPIPEPPKEAPVVIEKPKPKPKPKPKPPAHDHKNQKETHQRHAAGSGGGGSPHHHHHH
B3: EZ-3: C277S-link2-H6, SEQ ID NO: 426 (protein)
chain: MAFFDLPLEELKKYRPERYEEKDFDEFWEETLAESEKFPLDPVFERMESHLKTVEAYDVTFSGYRGQRIKGWLLVPKLEEEKLPCVVQYIGYNGGRGFPHDWLFWPSMGYICFVMDTRGQGSGWLKGDTPDYPEGPVDPQYPGFMTRGILDPRTYYYRRVFTDAVRAVEAAASFPQVDQERIVIAGGSQGGGIALAVSALSKKAKALLCDVPFLCHFRRAVQLVDTHPYAEITNFLKTHRDKEEIVFRTLSYFDGVNFAARAKIPALFSVGLMDNISPPSTVFAAYNYYAGPKEIRIYPYNNHEGGGSFQAVEQVKFLKKLFEKGGSHHHHHH

Key:
[1] = T. maritima C277S/C277T constructs, peracetic acid in solution (Example 11); format: biochemical; conditions: 0.5 μM enzyme, 100 mM triacetin, 100 mM H2O2, pH 7.2, 10 min, 37° C.; no enzyme 114
Protocol: (§1) The detection of peracetic acid followed the method described in Pinkernell et. al. (Analyst, 1997, 122, 567) using colorimetric detection of 2,2′-azino-bis(3-ethylbenzothiazoline(-6-sulfonate (ABTS) oxidation by peracetic acid. Following the formation of peracetic acid with the addition of triacetin and hydrogen peroxide, 90 μL of solution was added to 10 μL of 0.1 M H3PO4 in a well plate. 50 μL of 1 M acetic acid, 50 μL of 0.5 g/L ABTS and 50 μL of 0.002 g/L of KI was added. The solution was allowed to develop for 5 min. The absorbance of the solution was measured at 405 nm using a microplate reader. The peracetic acid concentration was calculated based on a standard curve developed simultaneously using peracetic acid reagent solution.
Perhydrolase enzymes listed in Table 5 were assessed for enzyme activity in solution as described in Example 7. The enzyme activity in solution was measured by making a 500 μl solution of 0.5 μM of each enzyme in 100 mM triacetin, 100 mM H2O2 and 10 mM phosphate buffer, pH 7.2. The solution was incubated for 10 min, at 37° C. After the reaction was stopped by mixing an aliquot with H3PO4, a 10 μL aliquot was removed for proper dilution, and then detected via ABTS oxidation as described in Example 7.

[2] = T. maritima C277S/C277T constructs, peracetic acid when bound to bovine enamel (Example 11); format: biochemical; conditions: bovine enamel exposed to 10 μM enzyme, 4 washes; 100 mM triacetin, 100 mM H2O2, 30 min, 37° C.; no enzyme 570
Protocol: as §1
The perhydrolase enzymes were also assessed for binding to bovine enamel substrates. Enamel substrates were prepared as described in Example 2 and 3. Each enamel block was hydrated in water for overnight at room temperature (˜22° C.). The enamel blocks were then equilibrated with 10 mM potassium phosphate buffer, pH7.2, for 10 min. The enamel substrates were rinsed 3 times the buffer. The enamel wells were filled with 500 μL of 10 μM enzyme solutions which was prepared by diluting in 10 mM phosphate buffer. The samples were incubated for 30 min with slow shaking at 37° C. The non-binding enzyme was removed by washing 4 times with phosphate buffer. Then, each enamel block was embedded inside a putty filled 24-well plate, with only the enamel top surface exposed. The perhydrolase activity from enamel bound enzyme was measured as described in Example 8. 100 μL reaction mixtures (100 mM phosphate buffer, pH7.2 and 100 mM H2O2 and 100 mM triacetin) was added on top of the enamel and incubated for 30 min at 37° C. A 90 μL aliquot was removed for detection via ABTS oxidation as noted in Example 8. Each sample data point represents an average of 3 independent enamel blocks.

[3] = Perhydrolase activity in solution, ABTS detection of peracetic acid (Example 7); format: biochemical; conditions: 10 μL of 0.625 μg/mL enzyme, triacetin, H2O2, pH 7.2, 5 min
Protocol: as §1
The enzyme activity in solution was measured by making a solution of 0.625 μg/mL of each enzyme in 50 mM phosphate buffer, pH 7.2. 10 μL of enzyme solution was mixed with 90 μL buffer, 30 μL of 3% triacetin in water, 30 μL of 30 mM H2O2. The solution was incubated for 5 min. A 90 μL aliquot was removed for detection via ABTS oxidation as noted above.

[4] = Perhydrolase activity of enzyme bound to hydroxyapatite discs, ABTS (Example 7); format: biochemical
Protocol: as §1
The perhydrolase activity of the fusions once bound to HAP discs surfaces was determined with the same ABTS method. Hydroxyapatite discs (HiMed Inc, Old Bethpage, N.Y.; 5 mm dia.×1.8 mm thick) were incubated in 20 μM enzyme solution (50 mM potassium phosphate buffer pH 7.2) for 60 min followed by 6 times of washes (50 mM potassium phosphate buffer pH 7.2). The discs with enzyme adsorbed were transferred to new wells and 200 μL of phosphate buffer (10 mM pH 7.2), 30 μL of 3% triacetin (final concentration of 0.346%) and 30 μL of 30 mM H2O2 (final concentration of 3.46 mM) were added. The solution was allowed to incubate at room temperature for 5 min. 90 μL of solution was pipetted to a new well containing 10 μL of 100 mM H3PO4. 50 μL of acetic acid, 50 μL KI, 50 μL ABTS were added as described above. The solution was developed for 5 min at room temperature and read at A405 nm.

[5] = Two-step bleaching of coffee-tea stained bovine enamel (Example 16); conditions: for Whiteness Index 0 min: two-step: 10 μM enzyme 60 min, rinsed, then 40 mM triacetin, 100 mM H2O2, pH 7.2, before step 2; for ΔWI / Whiteness Index 5 min / Whiteness Index 15 min / Whiteness Index 30 min / Whiteness Index 45 min / Whiteness Index 60 min: two-step; for ΔWI: 0 to 60 min; for Whiteness Index 5 min: 5 min in triacetin/H2O2; for Whiteness Index 15 min: 15 min in triacetin/H2O2; for Whiteness Index 30 min: 30 min in triacetin/H2O2; for Whiteness Index 45 min: 45 min in triacetin/H2O2; for Whiteness Index 60 min: 60 min in triacetin/H2O2
Protocol: Bovine enamel incisors were prepared as indicated in Example 1. The stained enamel blocks were embedded in a 48 well plate to protect the dentin backside from solution exposure. A solution of 10 μM of each enzyme in 10 mM phosphate buffer, pH 7.2 was prepared and 500 μL of solution was incubated with each enamel substrate for 60 min. The enzyme solution was removed and each well was rinsed three times with an additional 500 μL of buffer. The enamel blocks were placed in a fresh well for the whitening process. A solution with a final concentration of 40 mM triacetin, 100 mM H2O2 in 50 mM phosphate pH 7.2 buffer was freshly prepared and 500 μL of solution was added to each enamel block. Over the course of 1 hr the enamel blocks were removed and a color measurement was obtained and then each was returned to the solution in the well plate. The whiteness index for each sample was monitored.

[6] = Retention of perhydrolase on hydroxyapatite (SDS-PAGE band strength); format: binding; conditions: relative to enzyme input = 1; for Unbound (relative band strength): 10 μM enzyme, 0.5% hydroxyapatite, pH 7.2; for HAP Particles (relative band strength): enzyme retained on particles after washes
Protocol: Perhydrolase enzymes listed in Table 6 were assessed for binding to hydroxyapatite. A dispersion of hydroxyapatite nanoparticles (Aldrich 677418) was made at 0.5% solids in 10 mM phosphate buffer at pH 7.2. Enzyme stock solution was added to the hydroxyapatite dispersion to a final concentration of 10 μM and incubated for 30 min in a microcentrifuge tube with gentle agitation. Each sample was centrifuged for 5 min at 10000 rpm. The supernatant was removed and additional buffer was added. The particles were resuspended and transferred to a new tube. The process was repeated two additional times. Samples of the original input of enzyme, the supernatant removed from the particles with each wash step and the final particles were prepared for SDS-PAGE analysis by combining 60 μL of sample, 20 μL of LDS buffer and 8 μL of reducing agent (Nu-PAGE). Samples were heated at 85° C. for 10 min. 25 μL of each sample was loaded on a 4-12% BisTris gel (Invitrogen) and run at 115 volts for 1.5 h. The gel was removed and stained with a 1:1 dilution of Simply Blue stain (Invitrogen) overnight and destained for 4 h in deionized water. The gel was analyzed and detection of enzyme in each fraction was estimated based on the presence of a band. The results of the analysis are provided in Table 7 with an indication of the relative strength of each band in the gel compared to the enzyme input (input=1) to determine the strength of binding between the hydroxyapatite surface and each enzyme.

[7] = Peracetic acid generation from hydroxyapatite bound CE-7 perhydrolase fusions (Example 8); format: biochemical; conditions: hydroxyapatite particles exposed to 10 μM enzyme, washed; 100 mM triacetin, 100 mM H2O2, 30 min, 37° C.; no enzyme 30-118.8
Protocol: as §1
To assess binding of these constructs to hydroxyapatite, 33 mg of hydroxyapatite particles (Macro-prep Ceramic Hydroxyapatite TYPE I, 80 μm size BioRad, Hercules, Calif.), were washed with 10 mM phosphate buffer at pH 7.2. After removing the supernatant, enzyme stock solution was added to the hydroxyapatite dispersion to a final concentration of 10 μM and incubated for 30 min in a microcentrifuge tube with gentle agitation. Each sample was centrifuged for 1 min at 10000 rpm. The supernatant was removed and additional buffer was added. The particles were resuspended and transferred to a new tube. The process was repeated two additional times. The hydroxyapatite bound enzyme activity was measured by adding a 500 μl solution containing 100 mM triacetin, 100 mM H2O2 in 100 mM phosphate buffer, pH 7.2. The solution was incubated for 30 min, at 37° C. An aliquot was removed and mixed with H3PO4 and properly diluted for detection via ABTS oxidation as described in Example 7. The experiments were performed at different day with no enzyme as control for each experiment.

Molecule	Peracetic acid (ppm) In Solution [1]	Peracetic acid (ppm) On Enamel [2]	Avg Absorbance 405 nm Background subtracted [3]	Avg Absorbance Background subtract ([4]; background = no enzyme, no HAP (0.775))	Avg Absorbance at 5 min ([4]; discs incubated in 20 μM enzyme, 6 washes, 0.346% triacetin, 3.46 mM H2O2, A405)	PAA conc μM per disc ([4]; enzyme bound to hydroxyapatite disc, 5 min, no enzyme control 1.2)	activity when bound to hydroxyapatite (in words) ([4]; with addition of triacetin and hydrogen peroxide)	Whiteness Index 0 min [5]	ΔWI [5]	Whiteness Index 5 min [5]	Whiteness Index 15 min [5]	Whiteness Index 30 min [5]	Whiteness Index 45 min [5]	Whiteness Index 60 min [5]	Unbound (relative band strength) [6]	HAP Particles (relative band strength) [6]	Wash1 (relative band strength) [6]	Wash2 (relative band strength) [6]	Peracetic acid (ppm) [7]
B1	3956 ppm	1344 ppm	1.658	1.379	2.154	49.7 μM per disc	active enzymes when bound to hydroxyapatite	−135.8	93.2	−129.8	−97.4	−65.1	−49.9	−42.7	0.2	0.7	0.05	0.05	–
B2	4761 ppm	2549 ppm	1.577	–	–	–	–	−154.5	129.1	−134.6	−97.3	−57.2	−35.8	−25.3	0.5	0.5	0.0	0.0	3666.4 ppm
B3	5187 ppm	733 ppm	1.751	–	–	–	–	−159.0	75.2	−147.4	−161.5	−117.3	−104.7	−83.8	0.8	0.1	0.05	0.05	–
